Biological target: the molecule itself
Assay: HP-SEC, self-association
Protocol: To determine the molecular weight of the IL4-IL10 fusion protein, a High Performance Size Exclusion Chromatography (HP-SEC) assay was performed. The gel filtration (BioSuite 125 4 μm UHR SEC Column; Waters; Cat #186002161) was performed on a High-Performance Liquid Chromatography System (Shimadzu) with 50 mM phosphate buffer containing 0.5 M NaCl as mobile phase. The column was calibrated prior to the run using a protein mix of thyroglobulin, bovine serum albumen, carbonic anhydrase, myoglobulin, and ribonuclease. The IL4-IL10 fusion protein purified by cation exchange was obtained by pooling and concentrating the chromatography fractions with the highest IL4-IL10 fusion protein content (2 ml of pooled fractions was concentrated to 100 μl, containing 2 μg of IL4-IL10 fusion protein). Fifty μl of 20 μg/ml of pooled IL4-IL10 fusion protein was injected and ran trough the column at a flow rate of 0.35 ml/min and under a pressure of 35 bar. Fractions of 175 μl were collected and the IL4 and IL10 content was measured in the above described IL4 and IL10 ELISA (1/500 dilution). Similar runs with recombinant human IL4 (Sigma, Cat #14269) and recombinant human IL10 (Sigma, Cat #19276) were performed to compare the molecular size of the IL4-IL10 fusion protein with that of the wild-type cytokines.

B1: recombinant human IL10 (Sigma, Cat #19276) (ligand, UniProt P22301 19-178, looked up)
chain: SPGQGTQSENSCTHFPGNLPNMLRDLRDAFSRVKTFFQMKDQLDNLLLKESLLEDFKGYLGCQALSEMIQFYLEEVMPQAENQDPDIKAHVNSLGENLKTLRLRLRRCHRFLPCENKSKAVEQVKNAFNKLQEKGIYKAMSEFDIFINYIEAYMTMKIRN
notes: also called recombinant IL10; wild-type IL10
binding result: binds

B2: IL4-IL10 fusion protein (other)
chain: HKCDITLQEIIKTLNSLTEQKTLCTELTVTDIFAASKNTTEKETFCRAATVLRQFYSHHEKDTRCLGATAQQFHRHKQLIRFLKRLDRNLWGLAGLNSCPVKEANQSTLENFLERLKTIMREKYSKCSSGSGGGGSGTSPGQGTQSENSCTHFPGNLPNMLRDLRDAFSRVKTFFQMKDQLDNLLLKESLLEDFKGYLGCQALSEMIQFYLEEVMPQAENQDPDIKAHVNSLGENLKTLRLRLRRCHRFLPCENKSKAVEQVKNAFNKLQEKGIYKAMSEFDIFINYIEAYMTMKIRN
modifications: glycosylated (two glycoforms on the blot, one band after PNGaseF); made with co-transfected sialyltransferase to cap the glycans with sialic acid; sites not stated
notes: On the Western blot it was reduced and denatured; also called IL4-10 fusion protein; IL4-IL10 protein
binding result: binds

— patent publication US20200147178A1 (SYNERKINE PHARMA B V, published 2020)
